Laboratory results: US20140087995A1 (published 2014)
Numbered stars: 1 amine (or outer) side, 2 acyl side, 3 side chain; on linkers, the order of the positions; unused ones are H or OH. Bridge positions count the residues as written; N and C are the ends. Side chains are listed from the residue outwards. Ends that are not written are not given here. * marks the point of attachment. C20 diacid = O=C(O)CCCCCCCCCCCCCCCCCCC(=O)*; γGlu = O=C(O)[C@H](CCC(=O)[*:2])N[*:1]

T1: human calcitonin receptor (human, UniProt P30988 25-474)
T1 construct: whole, on cells; Membranes of BHK cells stably transfected with the human calcitonin receptor (Assay VII); also called hCTR; hCT
T1 sequence (looked up): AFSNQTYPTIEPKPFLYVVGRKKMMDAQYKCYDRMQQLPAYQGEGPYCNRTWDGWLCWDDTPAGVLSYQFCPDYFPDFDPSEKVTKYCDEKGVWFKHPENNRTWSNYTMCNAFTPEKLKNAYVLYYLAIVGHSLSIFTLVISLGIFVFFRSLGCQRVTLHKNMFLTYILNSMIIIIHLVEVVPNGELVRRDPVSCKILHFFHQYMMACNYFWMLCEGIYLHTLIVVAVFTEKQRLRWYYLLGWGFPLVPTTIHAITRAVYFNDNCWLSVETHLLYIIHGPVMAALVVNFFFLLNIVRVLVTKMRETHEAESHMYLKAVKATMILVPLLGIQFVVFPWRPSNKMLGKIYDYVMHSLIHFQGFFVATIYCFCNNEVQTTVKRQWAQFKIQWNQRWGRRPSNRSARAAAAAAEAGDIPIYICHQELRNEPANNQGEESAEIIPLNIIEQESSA

B1: N^ε1-[(4S)-4-carboxy-4-(19-carboxynonadecanoylamino)butanoyl]-[Glu14,Arg17,Pro21,Pro27,Pro34,Glu35]-h-amylin (peptide)
peptide: K([γGlu-C20 diacid])CNTATCATQRLAEFLRHSSPNFGAIPSSTNVGPETY-NH2
modifications: disulfide 2-7; N-terminus assumed
SMILES: CC[C@H](C)[C@H](NC(=O)[C@H](C)NC(=O)CNC(=O)[C@H](Cc1ccccc1)NC(=O)[C@H](CC(N)=O)NC(=O)[C@@H]1CCCN1C(=O)[C@H](CO)NC(=O)[C@H](CO)NC(=O)[C@H](Cc1c[nH]cn1)NC(=O)[C@H](CCCNC(=N)N)NC(=O)[C@H](CC(C)C)NC(=O)[C@H](Cc1ccccc1)NC(=O)[C@H](CCC(=O)O)NC(=O)[C@H](C)NC(=O)[C@H](CC(C)C)NC(=O)[C@H](CCCNC(=N)N)NC(=O)[C@H](CCC(N)=O)NC(=O)[C@@H](NC(=O)[C@H](C)NC(=O)[C@@H]1CSSC[C@H](NC(=O)[C@@H](N)CCCCNC(=O)CC[C@H](NC(=O)CCCCCCCCCCCCCCCCCCC(=O)O)C(=O)O)C(=O)N[C@@H](CC(N)=O)C(=O)N[C@@H]([C@@H](C)O)C(=O)N[C@@H](C)C(=O)N[C@@H]([C@@H](C)O)C(=O)N1)[C@@H](C)O)C(=O)N1CCC[C@H]1C(=O)N[C@@H](CO)C(=O)N[C@@H](CO)C(=O)N[C@H](C(=O)N[C@@H](CC(N)=O)C(=O)N[C@H](C(=O)NCC(=O)N1CCC[C@H]1C(=O)N[C@@H](CCC(=O)O)C(=O)N[C@H](C(=O)N[C@@H](Cc1ccc(O)cc1)C(N)=O)[C@@H](C)O)C(C)C)[C@@H](C)O
B2: N^ε1-[(4S)-4-carboxy-4-[[(4S)-4-carboxy-4-(19-carboxynonadecanoylamino)butanoyl]amino]butanoyl]-[Glu14,Arg17,Pro21,Pro27,Pro34,Glu35,Pro37]-h-amylin (peptide)
peptide: K([γGlu-γGlu-C20 diacid])CNTATCATQRLAEFLRHSSPNFGAIPSSTNVGPETP-NH2
modifications: disulfide 2-7; N-terminus assumed
SMILES: CC[C@H](C)[C@H](NC(=O)[C@H](C)NC(=O)CNC(=O)[C@H](Cc1ccccc1)NC(=O)[C@H](CC(N)=O)NC(=O)[C@@H]1CCCN1C(=O)[C@H](CO)NC(=O)[C@H](CO)NC(=O)[C@H](Cc1c[nH]cn1)NC(=O)[C@H](CCCNC(=N)N)NC(=O)[C@H](CC(C)C)NC(=O)[C@H](Cc1ccccc1)NC(=O)[C@H](CCC(=O)O)NC(=O)[C@H](C)NC(=O)[C@H](CC(C)C)NC(=O)[C@H](CCCNC(=N)N)NC(=O)[C@H](CCC(N)=O)NC(=O)[C@@H](NC(=O)[C@H](C)NC(=O)[C@@H]1CSSC[C@H](NC(=O)[C@@H](N)CCCCNC(=O)CC[C@H](NC(=O)CC[C@H](NC(=O)CCCCCCCCCCCCCCCCCCC(=O)O)C(=O)O)C(=O)O)C(=O)N[C@@H](CC(N)=O)C(=O)N[C@@H]([C@@H](C)O)C(=O)N[C@@H](C)C(=O)N[C@@H]([C@@H](C)O)C(=O)N1)[C@@H](C)O)C(=O)N1CCC[C@H]1C(=O)N[C@@H](CO)C(=O)N[C@@H](CO)C(=O)N[C@H](C(=O)N[C@@H](CC(N)=O)C(=O)N[C@H](C(=O)NCC(=O)N1CCC[C@H]1C(=O)N[C@@H](CCC(=O)O)C(=O)N[C@H](C(=O)N1CCC[C@H]1C(N)=O)[C@@H](C)O)C(C)C)[C@@H](C)O
B3: N^ε1-[(4S)-4-carboxy-4-[[(4S)-4-carboxy-4-(19-carboxynonadecanoylamino)butanoyl]amino]butanoyl]-[Glu14,Arg17,Pro21,Pro31,Pro34,Glu35]-h-amylin (peptide)
peptide: K([γGlu-γGlu-C20 diacid])CNTATCATQRLAEFLRHSSPNFGAILSSTPVGPETY-NH2
modifications: disulfide 2-7 (inferred)
B4: N^ε1-[(4S)-4-carboxy-4-[[(4S)-4-carboxy-4-(19-carboxynonadecanoylamino)butanoyl]amino]butanoyl]-[Glu14,Arg17,Pro23,Pro34,Glu35]-h-amylin (peptide)
peptide: K([γGlu-γGlu-C20 diacid])CNTATCATQRLAEFLRHSSNNPGAILSSTNVGPETY-NH2
modifications: disulfide 2-7; N-terminus assumed
SMILES: CC[C@H](C)[C@H](NC(=O)[C@H](C)NC(=O)CNC(=O)[C@@H]1CCCN1C(=O)[C@H](CC(N)=O)NC(=O)[C@H](CC(N)=O)NC(=O)[C@H](CO)NC(=O)[C@H](CO)NC(=O)[C@H](Cc1c[nH]cn1)NC(=O)[C@H](CCCNC(=N)N)NC(=O)[C@H](CC(C)C)NC(=O)[C@H](Cc1ccccc1)NC(=O)[C@H](CCC(=O)O)NC(=O)[C@H](C)NC(=O)[C@H](CC(C)C)NC(=O)[C@H](CCCNC(=N)N)NC(=O)[C@H](CCC(N)=O)NC(=O)[C@@H](NC(=O)[C@H](C)NC(=O)[C@@H]1CSSC[C@H](NC(=O)[C@@H](N)CCCCNC(=O)CC[C@H](NC(=O)CC[C@H](NC(=O)CCCCCCCCCCCCCCCCCCC(=O)O)C(=O)O)C(=O)O)C(=O)N[C@@H](CC(N)=O)C(=O)N[C@@H]([C@@H](C)O)C(=O)N[C@@H](C)C(=O)N[C@@H]([C@@H](C)O)C(=O)N1)[C@@H](C)O)C(=O)N[C@@H](CC(C)C)C(=O)N[C@@H](CO)C(=O)N[C@@H](CO)C(=O)N[C@H](C(=O)N[C@@H](CC(N)=O)C(=O)N[C@H](C(=O)NCC(=O)N1CCC[C@H]1C(=O)N[C@@H](CCC(=O)O)C(=O)N[C@H](C(=O)N[C@@H](Cc1ccc(O)cc1)C(N)=O)[C@@H](C)O)C(C)C)[C@@H](C)O
B5: N^ε1-[(4S)-4-carboxy-4-[[(4S)-4-carboxy-4-(19-carboxynonadecanoylamino)butanoyl]amino]butanoyl]-[Ser14,Arg17,Pro21,Pro27,Pro34,Glu35]-h-amylin (peptide)
peptide: K([γGlu-γGlu-C20 diacid])CNTATCATQRLASFLRHSSPNFGAIPSSTNVGPETY-NH2
modifications: disulfide 2-7; N-terminus assumed
SMILES: CC[C@H](C)[C@H](NC(=O)[C@H](C)NC(=O)CNC(=O)[C@H](Cc1ccccc1)NC(=O)[C@H](CC(N)=O)NC(=O)[C@@H]1CCCN1C(=O)[C@H](CO)NC(=O)[C@H](CO)NC(=O)[C@H](Cc1c[nH]cn1)NC(=O)[C@H](CCCNC(=N)N)NC(=O)[C@H](CC(C)C)NC(=O)[C@H](Cc1ccccc1)NC(=O)[C@H](CO)NC(=O)[C@H](C)NC(=O)[C@H](CC(C)C)NC(=O)[C@H](CCCNC(=N)N)NC(=O)[C@H](CCC(N)=O)NC(=O)[C@@H](NC(=O)[C@H](C)NC(=O)[C@@H]1CSSC[C@H](NC(=O)[C@@H](N)CCCCNC(=O)CC[C@H](NC(=O)CC[C@H](NC(=O)CCCCCCCCCCCCCCCCCCC(=O)O)C(=O)O)C(=O)O)C(=O)N[C@@H](CC(N)=O)C(=O)N[C@@H]([C@@H](C)O)C(=O)N[C@@H](C)C(=O)N[C@@H]([C@@H](C)O)C(=O)N1)[C@@H](C)O)C(=O)N1CCC[C@H]1C(=O)N[C@@H](CO)C(=O)N[C@@H](CO)C(=O)N[C@H](C(=O)N[C@@H](CC(N)=O)C(=O)N[C@H](C(=O)NCC(=O)N1CCC[C@H]1C(=O)N[C@@H](CCC(=O)O)C(=O)N[C@H](C(=O)N[C@@H](Cc1ccc(O)cc1)C(N)=O)[C@@H](C)O)C(C)C)[C@@H](C)O
notes: also called compound 120
B6: N^ε1-[(4S)-4-carboxy-4-[[(4S)-4-carboxy-4-(19-carboxynonadecanoylamino)butanoyl]amino]butanoyl]-[Glu14,Arg17,Pro21,Pro27,Pro34,His35]-h-amylin (peptide)
peptide: K([γGlu-γGlu-C20 diacid])CNTATCATQRLAEFLRHSSPNFGAIPSSTNVGPHTY-NH2
modifications: disulfide 2-7 (inferred)
B7: N^ε1-[(4S)-4-carboxy-4-[[(4S)-4-carboxy-4-(19-carboxynonadecanoylamino)butanoyl]amino]butanoyl]-[Glu14,Arg17,Pro21,Pro27,Pro34,Phe37]-h-amylin (peptide)
peptide: K([γGlu-γGlu-C20 diacid])CNTATCATQRLAEFLRHSSPNFGAIPSSTNVGPNTF-NH2
modifications: disulfide 2-7; N-terminus assumed
SMILES: CC[C@H](C)[C@H](NC(=O)[C@H](C)NC(=O)CNC(=O)[C@H](Cc1ccccc1)NC(=O)[C@H](CC(N)=O)NC(=O)[C@@H]1CCCN1C(=O)[C@H](CO)NC(=O)[C@H](CO)NC(=O)[C@H](Cc1c[nH]cn1)NC(=O)[C@H](CCCNC(=N)N)NC(=O)[C@H](CC(C)C)NC(=O)[C@H](Cc1ccccc1)NC(=O)[C@H](CCC(=O)O)NC(=O)[C@H](C)NC(=O)[C@H](CC(C)C)NC(=O)[C@H](CCCNC(=N)N)NC(=O)[C@H](CCC(N)=O)NC(=O)[C@@H](NC(=O)[C@H](C)NC(=O)[C@@H]1CSSC[C@H](NC(=O)[C@@H](N)CCCCNC(=O)CC[C@H](NC(=O)CC[C@H](NC(=O)CCCCCCCCCCCCCCCCCCC(=O)O)C(=O)O)C(=O)O)C(=O)N[C@@H](CC(N)=O)C(=O)N[C@@H]([C@@H](C)O)C(=O)N[C@@H](C)C(=O)N[C@@H]([C@@H](C)O)C(=O)N1)[C@@H](C)O)C(=O)N1CCC[C@H]1C(=O)N[C@@H](CO)C(=O)N[C@@H](CO)C(=O)N[C@H](C(=O)N[C@@H](CC(N)=O)C(=O)N[C@H](C(=O)NCC(=O)N1CCC[C@H]1C(=O)N[C@@H](CC(N)=O)C(=O)N[C@H](C(=O)N[C@@H](Cc1ccccc1)C(N)=O)[C@@H](C)O)C(C)C)[C@@H](C)O

Target: T1, human calcitonin receptor
Assay: ratio of IC50 at hCTR over IC50 at hAmylin-R (SPA competition assays)
Procedure, shortened: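 Competition binding by SPA uses membrane preparations (35 ng/μL final) in pH 7.4 Hepes buffer with 1 mM CaCl2 and 5 mM MgCl₂. Incubation lasts 120 min at 25° C, and IC₅₀ comes from one-site fitting.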

Question: With B1 as the binder, how does the “Ratio hCT/hAmylin binding” value read?
Answer: The value was 13.3.

Question: Which “Ratio hCT/hAmylin binding” value does the source give for B2 here?
Answer: The value was 0.4.

Question: For B3, which “Ratio hCT/hAmylin binding” value is on record?
Answer: The value was 22.6.

Question: How did the “Ratio hCT/hAmylin binding” value turn out when B4 was run?
Answer: Its value is 7.8.

Question: B5 was tested. Which “Ratio hCT/hAmylin binding” value did it give?
Answer: The value was 45.3.

Question: How did the “Ratio hCT/hAmylin binding” value turn out when B6 was run?
Answer: The value was 27.3.

Question: Which “Ratio hCT/hAmylin binding” value does the source give for B7 here?
Answer: The value was 18.

Target: T1, human calcitonin receptor
Assay: SPA competition against 125I-calcitonin, membranes of BHK cells with human calcitonin receptor (Assay VII)
Procedure, shortened: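 BHK hCTR membranes 35 ng/μL + SPA beads 0.05 mg/well; buffer 50 mM Hepes pH 7.4, 1 mM CaCl2, 5 mM MgCl₂, 0.1% OA, 0.02% Tween20. 120 min, 25° C., shaking. Scintillation count; IC50 by one-site binding competition.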

Question: For B1, which IC50 is on record?
Answer: The IC50 was 1.86 nM.

Question: Which IC50 does the source give for B2 here?
Answer: Its IC50 is 0.226 nM.

Question: How did the IC50 turn out when B3 was run?
Answer: Its IC50 is 1.56 nM.

Question: B4 was tested. Which IC50 did it give?
Answer: The IC50 was 9.29 nM.

Question: B5 was tested. Which IC50 did it give?
Answer: Its IC50 is 3.44 nM.

Question: B6 was tested. Which IC50 did it give?
Answer: The IC50 was 10.3 nM.

Question: B7 was tested. Which IC50 did it give?
Answer: Its IC50 is 2.73 nM.
